Experiments:
Test in all cases: cell-based or functional assay
[1] = molecular target: HIV-1 envelope glycoprotein gp120 of virus 7141 (HIV-1)
[2] = molecular target: HIV-1 envelope glycoprotein gp120 of virus 92US727 (HIV-1)
[3] = molecular target: HIV-1 envelope glycoprotein gp120 of virus VS001 (HIV-1)

Row | Binder | neutralization IC50 [1] [µg/mL] | neutralization IC50 [2] [µg/mL] | neutralization IC50 [3] [µg/mL]
1 | 3.1.9-1 (antibody, human IgG1, kappa, V domains shown) VH: QVQLLQSGAAVTKPGASVRVSCEASGYNIRDYFIHWWRQAPGQGLQWVGWINPKTGQPNNPRQFQGRVSLTRHASWDFDTFSFYMDLKALRSDDTAVYFCARQRSDYWDFDVWGSGTQVTVSS VL: DIQMTQSPSSLSARVGDTATITCQANGYLNWYQQRRGKAPKLLIYDGSKLERGVPARFSGRRWGQEYNLTINNLQPEDVATYFCQVYEFFGPGTRLDLKR | 4.35 | 3.54 | 0.16
2 | 2.2.9-1 (antibody, human IgG1, kappa, V domains shown) VH: QVHLSQSGAAVTKPGASVRVSCEASGYKIRDHFIHWWRQAPGQGLQWVGWINPKTGQPNNPRQFQGRVSLTRHASWDFDTFSFYMDLKAVRSDDTAIYFCARQRSDYWDFDVWGSGTQVTVSS VL: DIQMTQSPSSLSARVGDTATITCQANGYLNWYQQRRGKAPKLLIYDGSKLERGVPARFSGRRWGQEYNLTINNLQPEDVATYFCQVYEFFGPGTRLDLKR | 1.75 | 13.1 | 0.15
3 | 2.3.9-1 (antibody, human IgG1, kappa, V domains shown) VH: QVHLSQSGAAVTKPGASVRVSCEASGYNIRDYFIHWWRQAPGQGLQWVGWINPKTGQPNNPRQFQGRVSLTRHASWDFDTFSFYMDLKAVRSDDTAIYFCARQRSDYWDFDVWGSGTQVTVSS VL: DIQMTQSPSSLSARVGDTATITCQANGYLNWYQQRRGKAPKLLIYDGSKLERGVPARFSGRRWGQEYNLTINNLQPEDVATYFCQVYEFFGPGTRLDLKR | 2.56 | 11.1 | 0.22
4 | 1.1.117-1 (antibody, human IgG1, kappa, V domains shown) VH: QVQLLQSGAAVTKPGASVRVSCEASGYNIRDYFIHWWRQAPGQGLQWVGWINPKTGQPNNPRQFQGRVSLTRHASWDFDTFSFYMDLKALRSDDTAVYFCARQRSDYWDFDVWGSGTQVTVSS VL: DIQMTQSPSSLSASVGDTATITCQANGYLNWYQQRRGKAPKLLIYDGSKLERGVPSRFSGRRWGQEYILTINNLQPEDIATYFCQVYEFFGPGTRLDLKR | 16.9 | > 50 | 3.03
5 | 3.1.12-1 (antibody, human IgG1, kappa, V domains shown) VH: QVQLLQSGAAVTKPGASVRVSCEASGYNIRDYFIHWWRQAPGQGLQWVGWINPKTGQPNNPRQFQGRVSLTRHASWDFDTFSFYMDLKALRSDDTAVYFCARQRSDYWDFDVWGSGTQVTVSS VL: DIQMTQSPSSLSARVGDTATITCQANGYLNWYQQRRGKAPKLLIYDGSKLERGVPARFSGRRWGQEYILTINNLQPEDVATYFCQVYEFFGPGTRLDLKR | 24.5 | > 41 | 2.41
6 | 2.2.12-1 (antibody, human IgG1, kappa, V domains shown) VH: QVHLSQSGAAVTKPGASVRVSCEASGYKIRDHFIHWWRQAPGQGLQWVGWINPKTGQPNNPRQFQGRVSLTRHASWDFDTFSFYMDLKAVRSDDTAIYFCARQRSDYWDFDVWGSGTQVTVSS VL: DIQMTQSPSSLSARVGDTATITCQANGYLNWYQQRRGKAPKLLIYDGSKLERGVPARFSGRRWGQEYILTINNLQPEDVATYFCQVYEFFGPGTRLDLKR | 7.08 | > 50 | 2.1
7 | 2.3.12-1 (antibody, human IgG1, kappa, V domains shown) VH: QVHLSQSGAAVTKPGASVRVSCEASGYNIRDYFIHWWRQAPGQGLQWVGWINPKTGQPNNPRQFQGRVSLTRHASWDFDTFSFYMDLKAVRSDDTAIYFCARQRSDYWDFDVWGSGTQVTVSS VL: DIQMTQSPSSLSARVGDTATITCQANGYLNWYQQRRGKAPKLLIYDGSKLERGVPARFSGRRWGQEYILTINNLQPEDVATYFCQVYEFFGPGTRLDLKR | 23.8 | > 50 | 1.92
8 | 1.1.118-1 (antibody, human IgG1, kappa, V domains shown) VH: QVQLLQSGAAVTKPGASVRVSCEASGYNIRDYFIHWWRQAPGQGLQWVGWINPKTGQPNNPRQFQGRVSLTRHASWDFDTFSFYMDLKALRSDDTAVYFCARQRSDYWDFDVWGSGTQVTVSS VL: DIQMTQSPSSLSASVGDRATITCQANGYLNWYQQRRGKAPKLLIYDGSKLERGVPSRFSGSRWGQEYILTISSLQPEDIATYFCQVYEFFGPGTRLDLKR | 20.2 | > 50 | 2.4
9 | 3.1.13-1 (antibody, human IgG1, kappa, V domains shown) VH: QVQLLQSGAAVTKPGASVRVSCEASGYNIRDYFIHWWRQAPGQGLQWVGWINPKTGQPNNPRQFQGRVSLTRHASWDFDTFSFYMDLKALRSDDTAVYFCARQRSDYWDFDVWGSGTQVTVSS VL: DIQMTQSPSSLSARVGDRATITCQANGYLNWYQQRRGKAPKLLIYDGSKLERGVPARFSGSRWGQEYILTISSLQPEDVATYFCQVYEFFGPGTRLDLKR | 13.2 | > 21 | 0.56
10 | 2.2.13-1 (antibody, human IgG1, kappa, V domains shown) VH: QVHLSQSGAAVTKPGASVRVSCEASGYKIRDHFIHWWRQAPGQGLQWVGWINPKTGQPNNPRQFQGRVSLTRHASWDFDTFSFYMDLKAVRSDDTAIYFCARQRSDYWDFDVWGSGTQVTVSS VL: DIQMTQSPSSLSARVGDRATITCQANGYLNWYQQRRGKAPKLLIYDGSKLERGVPARFSGSRWGQEYILTISSLQPEDVATYFCQVYEFFGPGTRLDLKR | 3.8 | > 50 | 1.48
11 | 2.3.13-1 (antibody, human IgG1, kappa, V domains shown) VH: QVHLSQSGAAVTKPGASVRVSCEASGYNIRDYFIHWWRQAPGQGLQWVGWINPKTGQPNNPRQFQGRVSLTRHASWDFDTFSFYMDLKAVRSDDTAIYFCARQRSDYWDFDVWGSGTQVTVSS VL: DIQMTQSPSSLSARVGDRATITCQANGYLNWYQQRRGKAPKLLIYDGSKLERGVPARFSGSRWGQEYILTISSLQPEDVATYFCQVYEFFGPGTRLDLKR | 15.5 | > 38 | 1.5
12 | 1.1.104-1 (antibody, human IgG1, kappa, V domains shown) VH: QVQLLQSGAAVTKPGASVRVSCEASGYNIRDYFIHWWRQAPGQGLQWVGWINPKTGQPNNPRQFQGRVSLTRHASWDFDTFSFYMDLKALRSDDTAVYFCARQRSDYWDFDVWGSGTQVTVSS VL: DIQMTQSPSSLSASVGDTATITCQANGYLNWYQQRRGKAPKLLIYDGSKLERGVPSRFSGRRWGQEYTLTINNLQPEDIATYFCQVYEFFGPGTRLDLKR | 5.13 | > 50 | 0.45
13 | 3.1.15-1 (antibody, human IgG1, kappa, V domains shown) VH: QVQLLQSGAAVTKPGASVRVSCEASGYNIRDYFIHWWRQAPGQGLQWVGWINPKTGQPNNPRQFQGRVSLTRHASWDFDTFSFYMDLKALRSDDTAVYFCARQRSDYWDFDVWGSGTQVTVSS VL: DIQMTQSPSSLSARVGDTATITCQANGYLNWYQQRRGKAPKLLIYDGSKLERGVPARFSGRRWGQEYTLTINNLQPEDVATYFCQVYEFFGPGTRLDLKR | 9.1 | > 33 | 0.49
14 | 2.2.15-1 (antibody, human IgG1, kappa, V domains shown) VH: QVHLSQSGAAVTKPGASVRVSCEASGYKIRDHFIHWWRQAPGQGLQWVGWINPKTGQPNNPRQFQGRVSLTRHASWDFDTFSFYMDLKAVRSDDTAIYFCARQRSDYWDFDVWGSGTQVTVSS VL: DIQMTQSPSSLSARVGDTATITCQANGYLNWYQQRRGKAPKLLIYDGSKLERGVPARFSGRRWGQEYTLTINNLQPEDVATYFCQVYEFFGPGTRLDLKR | 1.99 | > 50 | 0.37
15 | 2.3.15-1 (antibody, human IgG1, kappa, V domains shown) VH: QVHLSQSGAAVTKPGASVRVSCEASGYNIRDYFIHWWRQAPGQGLQWVGWINPKTGQPNNPRQFQGRVSLTRHASWDFDTFSFYMDLKAVRSDDTAIYFCARQRSDYWDFDVWGSGTQVTVSS VL: DIQMTQSPSSLSARVGDTATITCQANGYLNWYQQRRGKAPKLLIYDGSKLERGVPARFSGRRWGQEYTLTINNLQPEDVATYFCQVYEFFGPGTRLDLKR | 5.93 | > 50 | 0.85
16 | 1.1.119-1 (antibody, human IgG1, kappa, V domains shown) VH: QVQLLQSGAAVTKPGASVRVSCEASGYNIRDYFIHWWRQAPGQGLQWVGWINPKTGQPNNPRQFQGRVSLTRHASWDFDTFSFYMDLKALRSDDTAVYFCARQRSDYWDFDVWGSGTQVTVSS VL: DIQMTQSPSSLSASVGDRATITCQANGYLNWYQQRRGKAPKLLIYDGSKLERGVPSRFSGSRWGQEYTLTISSLQPEDIATYFCQVYEFFGPGTRLDLKR | 6.92 | > 50 | 0.39
17 | 3.1.7-1 (antibody, human IgG1, kappa, V domains shown) VH: QVQLLQSGAAVTKPGASVRVSCEASGYNIRDYFIHWWRQAPGQGLQWVGWINPKTGQPNNPRQFQGRVSLTRHASWDFDTFSFYMDLKALRSDDTAVYFCARQRSDYWDFDVWGSGTQVTVSS VL: DIQMTQSPSSLSARVGDRATITCQANGYLNWYQQRRGKAPKLLIYDGSKLERGVPARFSGSRWGQEYTLTISSLQPEDVATYFCQVYEFFGPGTRLDLKR | 5.65 | > 50 | 0.3
18 | 2.2.7-1 (antibody, human IgG1, kappa, V domains shown) VH: QVHLSQSGAAVTKPGASVRVSCEASGYKIRDHFIHWWRQAPGQGLQWVGWINPKTGQPNNPRQFQGRVSLTRHASWDFDTFSFYMDLKAVRSDDTAIYFCARQRSDYWDFDVWGSGTQVTVSS VL: DIQMTQSPSSLSARVGDRATITCQANGYLNWYQQRRGKAPKLLIYDGSKLERGVPARFSGSRWGQEYTLTISSLQPEDVATYFCQVYEFFGPGTRLDLKR | 1.58 | > 50 | 0.27
19 | 2.3.7-1 (antibody, human IgG1, kappa, V domains shown) VH: QVHLSQSGAAVTKPGASVRVSCEASGYNIRDYFIHWWRQAPGQGLQWVGWINPKTGQPNNPRQFQGRVSLTRHASWDFDTFSFYMDLKAVRSDDTAIYFCARQRSDYWDFDVWGSGTQVTVSS VL: DIQMTQSPSSLSARVGDRATITCQANGYLNWYQQRRGKAPKLLIYDGSKLERGVPARFSGSRWGQEYTLTISSLQPEDVATYFCQVYEFFGPGTRLDLKR | 5.08 | > 50 | 0.47

— patent publication US20240034774A1
